According to PMC2836958 (Molecular Biology of the Cell, 2010):
Where two headings read alike, the source gives them in different places.

T1: Vps4^E233Q (S. cerevisiae, UniProt P52917 1-437, E233Q)
T1 sequence (looked up): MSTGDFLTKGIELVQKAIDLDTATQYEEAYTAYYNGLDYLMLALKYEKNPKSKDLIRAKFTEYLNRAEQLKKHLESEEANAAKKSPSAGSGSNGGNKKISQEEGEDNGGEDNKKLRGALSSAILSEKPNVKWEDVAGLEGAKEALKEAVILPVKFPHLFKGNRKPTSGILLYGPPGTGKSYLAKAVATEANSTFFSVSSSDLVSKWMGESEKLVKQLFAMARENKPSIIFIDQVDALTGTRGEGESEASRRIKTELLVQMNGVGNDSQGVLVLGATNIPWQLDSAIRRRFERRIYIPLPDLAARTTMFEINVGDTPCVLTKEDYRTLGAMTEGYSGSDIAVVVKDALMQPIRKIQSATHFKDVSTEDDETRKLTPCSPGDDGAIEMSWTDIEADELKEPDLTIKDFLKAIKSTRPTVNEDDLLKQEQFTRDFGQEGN

B1: Ist1 (natural protein, S. cerevisiae, UniProt P53843 1-298, looked up)
chain: MAPSMIPFTIKLKTCLKMCIQRLRYAQEKQQAIAKQSRRQVAQLLLTNKEQKAHYRVETLIHDDIHIELLEILELYCELLLARVQVINDISTEEQLVKEHMDDGINEAIRSLIYAILFVDEVKELSQLKDLMAWKINVEFVNGVIADHIDVPEKIIKKCSPSVPKEELVDLYLKEIAKTYDVPYSKLENSLSSSSSNISSDFSDPSGDIEDNDEEKPILALDNDDNDNADAKHPITVKKPRQNSENIKNELKIPKDIKKEVIEKKQSEKKTTKRKTKKEQENDELDELKKRFDALRRK

Assays:
Assay in all cases: pull-down
Ist1 = target: B1
Vps4^E233Q [1] = target: T1, Vps4^E233Q
Vps4^E233Q [2] = target: T1, Vps4^E233Q; remark: listed apart in the source

Row | binding result (Ist1) | Binder | other results
1 | binds | GST-Did2 (natural protein, S. cerevisiae, UniProt P69771 1-204, looked up) MSRNSAAGLENTLFQLKFTSKQLQKQANKASKEEKQETNKLKRALNENEDISRIYASNAIRKKNERLQLLKLASRVDSVASRVQTAVTMRQVSASMGQVCKGMDKALQNMNLQQITMIMDKFEQQFEDLDTSVNVYEDMGVNSDAMLVDNDKVDELMSKVADENGMELKQSAKLDNVPEIKAKEVNVDDEKEDKLAQRLRALRG | –
2 | – | B1 | binding result (Vps4^E233Q [1]): binds
3 | binds | GST-CT(Did2) (domain or fragment, S. cerevisiae, UniProt P69771 113-204, looked up) QQITMIMDKFEQQFEDLDTSVNVYEDMGVNSDAMLVDNDKVDELMSKVADENGMELKQSAKLDNVPEIKAKEVNVDDEKEDKLAQRLRALRG | –
4 | – | GST-Vps20(C) (domain or fragment, S. cerevisiae, UniProt Q04272 101-221, looked up) QFINGLKNGNEILKKLNKEFSNVDELMDDVQDQIAYQNEINETLSRSLVGTSNYEDDLDKELDALESELNPEKMNNAKVANMPSTEGLPSLPQGEQTEQKEREEFATEERSDTKEPLALLS | binding result (Vps4^E233Q [2]): binds
